From article PMC9228767, “Structural and Functional Characterization of the Holliday Junction Resolvase RuvC from Deinococcus radiodurans” (Microorganisms, 2022)

Assays:
[1] = molecular target: the molecule itself; test: SEC; Superdex 75 10/300 GL column, recombinant DrRuvC; 4 °C; buffers in Supplementary Table S1
DrRuvC [2] = molecular target: T1, DrRuvC (Deinococcus radiodurans, UniProt Q9RX75 1-179); test: EMSA; 1 mM EDTA; 0-500 nM protein; 50 mM Tris-HCl pH 7.0, 100 mM NaCl, 1 mM EDTA, 1% glycerol, 50 nM 5'-FAM DNA, on ice 30 min, 5% native PAGE; conditions: protein: recombinant; tags: N-terminal 6xHis (pET28a NdeI/BamHI); chain copies: 2; label: 5'-FAM on one strand; four-way junction, non-homologous core, immobile, 4 strands
T1 sequence: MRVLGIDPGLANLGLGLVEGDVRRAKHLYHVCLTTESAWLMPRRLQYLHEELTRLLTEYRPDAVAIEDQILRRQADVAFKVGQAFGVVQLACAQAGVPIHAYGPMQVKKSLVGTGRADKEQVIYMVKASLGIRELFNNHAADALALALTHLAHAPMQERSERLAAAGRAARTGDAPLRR

DrRuvC [3] = molecular target: T1, DrRuvC; test: EMSA; 1 mM EDTA; 0-500 nM protein; no significant difference from HJ-0X; 50 mM Tris-HCl pH 7.0, 100 mM NaCl, 1 mM EDTA, 1% glycerol, 50 nM 5'-FAM DNA, on ice 30 min, 5% native PAGE; conditions: protein: recombinant; tags: N-terminal 6xHis (pET28a NdeI/BamHI); chain copies: 2; label: 5'-FAM on one strand; four-way junction, 12 bp homologous mobile core, 4 strands
DrRuvC [4] = molecular target: T1, DrRuvC; test: EMSA; no stable shift up to 500 nM protein; 50 mM Tris-HCl pH 7.0, 100 mM NaCl, 1 mM EDTA, 1% glycerol, 50 nM 5'-FAM DNA, on ice 30 min, 5% native PAGE; conditions: protein: recombinant, tags: N-terminal 6xHis (pET28a NdeI/BamHI), chain copies: 2, label: 5'-FAM on one strand

B1: RuvC from Deinococcus radiodurans (DrRuvC), full-length (enzyme, UniProt Q9RX75 1-179, looked up)
chain: T1 sequence
notes: Holliday junction resolvase RuvC (DR_0440) of Deinococcus radiodurans, full length; has a C-terminal tail (residues 163-179); residues 1-154 of each monomer are seen in the crystal structure; Cloned into pET28a between NdeI and BamHI; the His tag is said to be on the protein used for crystallisation; also called DR_0440; source: E. coli BL21 (DE3), purified (nickel, desalting, Heparin ion …)
- stoichiometry N [1]: 2

B2: HJ-0X (structured_DNA)
DNA 1: CCACCAGAAACACGCCACAGTTTTTGTTTTGATTGCGAGGCCGTCCTACC
DNA 2: GGTAGGACGGCCTCGCAATCAAAACTTTTTGAGCACGCGAGATGTCAACG
DNA 3: CGTTGACATCTCGCGTGCTCAAAAAAAAAACAGATGCGGAGTGAAGTTCC
DNA 4: GGAACTTCACTCCGCATCTGTTTTTAAAAACTGTGGCGTGTTTCTGGTGG
- binding result (DrRuvC [2]): binds

B3: HJ-12X (structured_DNA)
DNA 1: GACGCTGCCGAATTCTGGCTTGCTAGGACATCTTTGCCCACGTTGACCCA
DNA 2: TGGGTCAACGTGGGCAAAGATGTCCTAGCAATGTAATCGTCTATGACGTT
DNA 3: AACGTCATAGACGATTACATTGCTAGGACATGCTGTCTAGAGACTATCGA
DNA 4: TCGATAGTCTCTAGACAGCATGTCCTAGCAAGCCAGAATTCGGCAGCGTC
- binding result (DrRuvC [3]): binds

B4: duplex (dsDNA)
DNA 1: B2 DNA 1
DNA 2: GGTAGGACGGCCTCGCAATCAAAACAAAAACTGTGGCGTGTTTCTGGTGG
- binding result (DrRuvC [4]; blunt): no binding

B5: bulge (dsDNA)
DNA 1: B2 DNA 1
DNA 2: GGTAGGACGGCCTCGCAATCTTTTGTTTTTCTGTGGCGTGTTTCTGGTGG
- binding result (DrRuvC [4]; internal unpaired bubble, blunt ends): no binding

B6: flap (structured_DNA)
DNA 1: B2 DNA 1
DNA 2: B2 DNA 2
DNA 3: CGTTGACATCTCGCGTGCTCAAAAA
- binding result (DrRuvC [4]; flap, 3 strands: S1 3' half with S4 5' half, S4 3' half with S5): no binding

B7: Y-junction (structured_DNA)
DNA 1: B2 DNA 1
DNA 2: B2 DNA 2
DNA 3: CGTTGACATCTCGCGTGCTCAAAAAAAAAACTGTGGCGTGTTTCTGGTGG
- binding result (DrRuvC [4]; three-way junction, 3 strands): no binding
